Experimental data from patent EP1731613A2 (DEGUSSA AG, dated 2006).

Molecular target: T1, Zwf sub-unit (Zwf protein) of glucose 6-phosphate dehydrogenase from Corynebacterium glutamicum ATCC13032 (Corynebacterium glutamicum ATCC13032)
T1 construct: also called Zwf gene product; 60 kDa protein
T1 chain: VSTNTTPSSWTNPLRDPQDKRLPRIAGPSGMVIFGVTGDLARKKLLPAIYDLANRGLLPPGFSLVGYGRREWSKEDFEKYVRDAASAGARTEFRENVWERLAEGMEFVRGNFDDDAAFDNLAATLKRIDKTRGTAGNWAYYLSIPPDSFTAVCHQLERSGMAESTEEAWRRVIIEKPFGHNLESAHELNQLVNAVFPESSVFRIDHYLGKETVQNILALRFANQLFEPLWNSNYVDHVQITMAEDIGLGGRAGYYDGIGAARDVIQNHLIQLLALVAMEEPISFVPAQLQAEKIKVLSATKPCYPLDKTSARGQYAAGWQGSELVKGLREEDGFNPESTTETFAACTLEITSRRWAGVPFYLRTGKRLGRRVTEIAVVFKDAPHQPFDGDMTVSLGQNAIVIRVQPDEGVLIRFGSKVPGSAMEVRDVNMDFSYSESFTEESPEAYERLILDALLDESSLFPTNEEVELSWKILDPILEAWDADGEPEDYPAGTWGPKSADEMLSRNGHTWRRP
Experiment: co-purification over DEAE, Red-Sepharose and 2'5'-ADP-sepharose and gel filtration (Superdex G200pg); SDS-PAGE

B1: OpcA sub-unit (OpcA protein) of glucose 6-phosphate dehydrogenase from Corynebacterium glutamicum ATCC13032 (enzyme)
chain: MIFELPDTTTQQISKTLTRLRESGTQVTTGRVLTLIVVTDSESDVAAVTESTNEASREHPSRVIILVVGDKTAENKVDAEVRIGGDAGASEMIIMHLNGPVADKLQYVVTPLLLPDTPIVAWWPGESPKNPSQDPIGRIAQRRITDALYDRDDALEDRVENYHPGDTDMTWARLTQWRGLVASSLDHPPHSEITSVRLTGASGSTSVDLAAGWLARRLKVPVIREVTDAPTVPTDEFGTPLLAIQRLEIVRTTGSIIITIYDAHTLQVEMPESGNAPSLVAIGRRSESDCLSEELRHMDPDLGYQHALSGLSSVKLETV
notes: also called OpcA gene product; 30 kDa protein
binding result: binds
